This is an account of results in doi:10.1101/2021.05.01.442081.

This data set has as its target T1, GST-FOXD3 (Mus musculus, UniProt Q61060 1-465).
T1 sequence: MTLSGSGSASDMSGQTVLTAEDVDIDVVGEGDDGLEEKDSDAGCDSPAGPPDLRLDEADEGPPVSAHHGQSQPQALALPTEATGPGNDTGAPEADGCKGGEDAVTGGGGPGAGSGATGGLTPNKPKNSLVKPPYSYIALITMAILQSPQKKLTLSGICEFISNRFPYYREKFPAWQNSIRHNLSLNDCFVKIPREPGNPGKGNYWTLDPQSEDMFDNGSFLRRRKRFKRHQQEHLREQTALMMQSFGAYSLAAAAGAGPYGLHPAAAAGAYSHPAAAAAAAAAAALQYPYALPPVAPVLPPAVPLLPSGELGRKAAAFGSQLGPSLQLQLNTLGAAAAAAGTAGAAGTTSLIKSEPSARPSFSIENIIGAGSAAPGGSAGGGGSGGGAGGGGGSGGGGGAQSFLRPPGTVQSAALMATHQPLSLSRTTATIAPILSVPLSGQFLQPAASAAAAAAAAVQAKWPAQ
The experiment in a line: EMSA. In general terms: Mobility shift assays separate free from complexed probe on a gel.

B1: MERVL-LTR (dsDNA)
DNA 1: AGACTCAAAGCAAAACAGGCTCCTAGAGGGGAGGT
DNA 2: ACCTCCCCTCTAGGAGCCTGTTTTGCTTTGAGTCT
Take B1: the binding result was “binds”.
